The chains are these.
B1: WW domain-binding protein 4, residues 8 to 43; numbered along this chain, O75554 (parent)
chain: QPKKFCDYCKCWIADNRPSVEFHERGKNHKENVAKR

± gives the uncertainty stated by the source.

In the data set the parent is B1. As to the kind of experiment: abundance fitness (aPCA) (normalised: wild type 0, dead -1); higher = more abundant; growth selection in yeast, the domain comes from the species named. Particulars: Homo sapiens.
Turning to QPKKFCDYCKCWIADNRPSVEFHERGKNHKENVAKG [R36G], the abundance fitness is 0.16 ± 0.065.

For QPKKFCDYCKCWIADNRPSVEFHERGKNHKENVAKC [R36C], the abundance fitness came to 0.005 ± 0.14.

Take QPKKFCDYCKCWIADNRPSVEFHERGKNHKENVAKQ [R36Q]: the abundance fitness was -0.304 ± 0.2.

For the variant QPKKFCDYCKCWIADNRPSVEFHERGKNHKENVAKK [R36K], the abundance fitness was 0.058 ± 0.12.

Regarding QPKKFCDYCKCWIADNRPSVEFHERGKNHKENVAKP [R36P], the abundance fitness worked out at 0.211 ± 0.15.

In the case of QPKKFCDYCKCWIADNRPSVEFHERGKNHKENVAKM [R36M], the abundance fitness is -0.267 ± 0.2.

With QPKKFCDYCKCWIADNRPSVEFHERGKNHKENVAKE [R36E], the abundance fitness was 0.245 ± 0.094.

With QPKKFCDYCKCWIADNRPSVEFHERGKNHKENVAKS [R36S], the abundance fitness is -0.032 ± 0.097.

As for QPKKFCDYCKCWIADNRPSVEFHERGKNHKENVAKW [R36W], the abundance fitness is -0.29 ± 0.12.

As to QPKKFCDYCKCWIADNRPSVEFHERGKNHKENVAKA [R36A], the abundance fitness was 0.023 ± 0.11.

Consider QPKKFCDYCKCWIADNRPSVEFHERGKNHKENVQKR [A34Q], for which the abundance fitness is -0.289 ± 0.14.

Regarding QPKKFCDYCKCWIADNRPSVEFHERGKNHKENVGKR [A34G], the abundance fitness was -0.036 ± 0.061.

For QPKKFCDYCKCWIADNRPSVEFHERGKNHKENVCKR [A34C], the abundance fitness is -0.135 ± 0.1.

For QPKKFCDYCKCWIADNRPSVEFHERGKNHKENVLKR [A34L], the abundance fitness is -0.201 ± 0.096.

As for QPKKFCDYCKCWIADNRPSVEFHERGKNHKENVKKR [A34K], the abundance fitness is -0.098 ± 0.13.

Consider QPKKFCDYCKCWIADNRPSVEFHERGKNHKENVRKR [A34R], for which the abundance fitness is -0.11 ± 0.061.

On to QPKKFCDYCKCWIADNRPSVEFHERGKNHKENVSKR [A34S], for which the abundance fitness is 0.055 ± 0.14.

QPKKFCDYCKCWIADNRPSVEFHERGKNHKENVPKR [A34P]: the abundance fitness was -0.309 ± 0.26.

Turning to QPKKFCDYCKCWIADNRPSVEFHERGKNHKENVTKR [A34T], the abundance fitness was found to be 0.022 ± 0.09.

In the case of QPKKFCDYCKCWIADNRPSVEFHERGKNHKENVIKR [A34I], the abundance fitness stood at 0.089 ± 0.33.

Turning to QPKKFCDYCKCWIADNRPSVEFHERGKNHKENVWKR [A34W], the abundance fitness was -0.232 ± 0.12.

As to QPKKFCDYCKCWIADNRPSVEFHERGKNHKENVHKR [A34H], the abundance fitness was -0.001 ± 0.12.

Regarding QPKKFCDYCKCWIADNRPSVEFHERGKNHKENVFKR [A34F], the abundance fitness was -0.385 ± 0.13.

For the variant QPKKFCDYCKCWIADNRPSVEFHERGKNHKENVVKR [A34V], the abundance fitness was -0.088 ± 0.078.

For QPKKFCDYCKCWIADNRPSVEFHERGKNHKENVEKR [A34E], the abundance fitness was -0.001 ± 0.13.

With QPKKFCDYCKCWIADNRPSVEFHERGKNHKENVDKR [A34D], the abundance fitness was determined as 0.351 ± 0.13.

Regarding QPKKFCDYCKCWIADNRPSVEFHERGKNHKENQAKR [V33Q], the abundance fitness was -0.195 ± 0.12.

Consider QPKKFCDYCKCWIADNRPSVEFHERGKNHKENLAKR [V33L], for which the abundance fitness was -0.205 ± 0.075.

Turning to QPKKFCDYCKCWIADNRPSVEFHERGKNHKENNAKR [V33N], the abundance fitness was -0.572 ± 0.24.

As to QPKKFCDYCKCWIADNRPSVEFHERGKNHKENTAKR [V33T], the abundance fitness is -0.23 ± 0.1.

Turning to QPKKFCDYCKCWIADNRPSVEFHERGKNHKENPAKR [V33P], the abundance fitness is -0.315 ± 0.1.

As to QPKKFCDYCKCWIADNRPSVEFHERGKNHKENMAKR [V33M], the abundance fitness is -0.074 ± 0.34.

As for QPKKFCDYCKCWIADNRPSVEFHERGKNHKENRAKR [V33R], the abundance fitness is -0.149 ± 0.066.

As for QPKKFCDYCKCWIADNRPSVEFHERGKNHKENKAKR [V33K], the abundance fitness was -0.278 ± 0.076.

As to QPKKFCDYCKCWIADNRPSVEFHERGKNHKENIAKR [V33I], the abundance fitness was -0.404 ± 0.23.

QPKKFCDYCKCWIADNRPSVEFHERGKNHKENVAER [K35E]: the abundance fitness was -0.099 ± 0.095.

Turning to QPKKFCDYCKCWIADNRPSVEFHERGKNHKENVANR [K35N], the abundance fitness is -0.085 ± 0.14.

In the case of QPKKFCDYCKCWIADNRPSVEFHERGKNHKENVAQR [K35Q], the abundance fitness was -0.093 ± 0.1.

In the case of QPKKFCDYCKCWIADNRPSVEFHERGKNHKENVASR [K35S], the abundance fitness was -0.034 ± 0.068.

Regarding QPKKFCDYCKCWIADNRPSVEFHERGKNHKENVACR [K35C], the abundance fitness is -0.951 ± 0.32.

Consider QPKKFCDYCKCWIADNRPSVEFHERGKNHKENVAAR [K35A], for which the abundance fitness was determined as 0.216 ± 0.093.

With QPKKFCDYCKCWIADNRPSVEFHERGKNHKENVARR [K35R], the abundance fitness is 0.004 ± 0.076.

In the case of QPKKFCDYCKCWIADNRPSVEFHERGKNHKENVATR [K35T], the abundance fitness is -0.043 ± 0.093.

Regarding QPKKFCDYCKCWIADNRPSVEFHERGKNHKENVAVR [K35V], the abundance fitness is -0.129 ± 0.078.

QPKKFCDYCKCWIADNRPSVEFHERGKNHKENVAWR [K35W]: the abundance fitness came out at 0.017 ± 0.12.

QPKKFCDYCKCWIADNRPSVEFHERGKNHKENVAMR [K35M]: the abundance fitness was -0.092 ± 0.09.

As for QPKKFCDYCKCWIADNRPSVEFHERGKNHKENVAGR [K35G], the abundance fitness was 0 ± 0.065.

Regarding QPKKFCDYCKCWIADNRPSVEFHERGKNHKENVAPR [K35P], the abundance fitness was -0.002 ± 0.095.

Take QPKKFCDYCKCWIADNRPSVEFHERGKNHKENVADR [K35D]: the abundance fitness was -0.057 ± 0.11.

Turning to QPKKFCDYCKCWIADNRPSVEFHERGKNHKENVALR [K35L], the abundance fitness was -0.212 ± 0.086.

The record behind these values is the Human Domainome abundance scans (Beltran et al. 2025).
